Our source for the Kd, koff and kon values is patent US20240294593A1 (Genentech, published 2024).

Usually Kd stands for the concentration at which binding is half-saturated. One may read the koff as the rate constant with which the complex falls apart. A lower koff goes with slow dissociation. For orientation: kon means a measure of how fast the partners come together. The low end stands for slower complex formation, the high end for faster complex formation.

First the molecules themselves.
B1: H1_L1.23 (antibody, V domains shown)
VH: EVQLVESGGGLVQPGGSLRLSCAASGFTFSSFGMHWVRQAPGKGLEWVSYISSGSSIIYYADSVKGRFTISRDNAKNSLYLQMNSLRAEDTAVYYCARGGRLVWSPDYWGQGTLVTVSS
VL: DIVMTQSPDSLAVSLGERATINCKSSQSLLNSGDQKNYLTWYQQKPGQPPKLLIYWASTRESGVPDRFTGSGSGTDFTLTISSLQAEDVAVYYCQNDYSYPFTFGSGTKLEIKR
notes: also called VL-N34D; Kabat 28
B2: H1_L1.29 (antibody, V domains shown)
VH: EVQLVESGGGLVQPGGSLRLSCAASGFTFSSFGMHWVRQAPGKGLEWVSYISSGSSIIYYADSVKGRFTISRDNAKNSLYLQMNSLRAEDTAVYYCARGGRLVWSPDYWGQGTLVTVSS
VL: DIVMTQSPDSLAVSLGERATINCKSSQSLLNSGTQKNYLTWYQQKPGQPPKLLIYWASTRESGVPDRFTGSGSGTDFTLTISSLQAEDVAVYYCQNDYSYPFTFGSGTKLEIKR
notes: also called VL-N34T; Kabat 28
B3: H1_L1.35 (antibody, V domains shown)
VH: EVQLVESGGGLVQPGGSLRLSCAASGFTFSSFGMHWVRQAPGKGLEWVSYISSGSSIIYYADSVKGRFTISRDNAKNSLYLQMNSLRAEDTAVYYCARGGRLVWSPDYWGQGTLVTVSS
VL: DIVMTQSPDSLAVSLGERATINCKSSQSLLNSGNKKNYLTWYQQKPGQPPKLLIYWASTRESGVPDRFTGSGSGTDFTLTISSLQAEDVAVYYCQNDYSYPFTFGSGTKLEIKR
notes: also called VL-Q35K; Kabat 29
B4: H1_L1.28 (antibody, V domains shown)
VH: EVQLVESGGGLVQPGGSLRLSCAASGFTFSSFGMHWVRQAPGKGLEWVSYISSGSSIIYYADSVKGRFTISRDNAKNSLYLQMNSLRAEDTAVYYCARGGRLVWSPDYWGQGTLVTVSS
VL: DIVMTQSPDSLAVSLGERATINCKSSQSLLNSGLQKNYLTWYQQKPGQPPKLLIYWASTRESGVPDRFTGSGSGTDFTLTISSLQAEDVAVYYCQNDYSYPFTFGSGTKLEIKR
notes: also called VL-N34L; Kabat 28
B5: H1_L1.25 (antibody, V domains shown)
VH: EVQLVESGGGLVQPGGSLRLSCAASGFTFSSFGMHWVRQAPGKGLEWVSYISSGSSIIYYADSVKGRFTISRDNAKNSLYLQMNSLRAEDTAVYYCARGGRLVWSPDYWGQGTLVTVSS
VL: DIVMTQSPDSLAVSLGERATINCKSSQSLLNSGEQKNYLTWYQQKPGQPPKLLIYWASTRESGVPDRFTGSGSGTDFTLTISSLQAEDVAVYYCQNDYSYPFTFGSGTKLEIKR
notes: also called VL-N34E; Kabat 28
B6: H1_L1.34 (antibody, V domains shown)
VH: EVQLVESGGGLVQPGGSLRLSCAASGFTFSSFGMHWVRQAPGKGLEWVSYISSGSSIIYYADSVKGRFTISRDNAKNSLYLQMNSLRAEDTAVYYCARGGRLVWSPDYWGQGTLVTVSS
VL: DIVMTQSPDSLAVSLGERATINCKSSQSLLNSGNNKNYLTWYQQKPGQPPKLLIYWASTRESGVPDRFTGSGSGTDFTLTISSLQAEDVAVYYCQNDYSYPFTFGSGTKLEIKR
notes: also called VL-Q35N; Kabat 29
B7: H1_L1.30 (antibody, V domains shown)
VH: EVQLVESGGGLVQPGGSLRLSCAASGFTFSSFGMHWVRQAPGKGLEWVSYISSGSSIIYYADSVKGRFTISRDNAKNSLYLQMNSLRAEDTAVYYCARGGRLVWSPDYWGQGTLVTVSS
VL: DIVMTQSPDSLAVSLGERATINCKSSQSLLNSGGQKNYLTWYQQKPGQPPKLLIYWASTRESGVPDRFTGSGSGTDFTLTISSLQAEDVAVYYCQNDYSYPFTFGSGTKLEIKR
notes: also called VL-N34G; Kabat 28
B8: H1_L1.24 (antibody, V domains shown)
VH: EVQLVESGGGLVQPGGSLRLSCAASGFTFSSFGMHWVRQAPGKGLEWVSYISSGSSIIYYADSVKGRFTISRDNAKNSLYLQMNSLRAEDTAVYYCARGGRLVWSPDYWGQGTLVTVSS
VL: DIVMTQSPDSLAVSLGERATINCKSSQSLLNSGHQKNYLTWYQQKPGQPPKLLIYWASTRESGVPDRFTGSGSGTDFTLTISSLQAEDVAVYYCQNDYSYPFTFGSGTKLEIKR
notes: also called VL-N34H; Kabat 28
B9: H1_L1.27 (antibody, V domains shown)
VH: EVQLVESGGGLVQPGGSLRLSCAASGFTFSSFGMHWVRQAPGKGLEWVSYISSGSSIIYYADSVKGRFTISRDNAKNSLYLQMNSLRAEDTAVYYCARGGRLVWSPDYWGQGTLVTVSS
VL: DIVMTQSPDSLAVSLGERATINCKSSQSLLNSGRQKNYLTWYQQKPGQPPKLLIYWASTRESGVPDRFTGSGSGTDFTLTISSLQAEDVAVYYCQNDYSYPFTFGSGTKLEIKR
notes: also called VL-N34R; Kabat 28
B10: H1_L1.32 (antibody, V domains shown)
VH: EVQLVESGGGLVQPGGSLRLSCAASGFTFSSFGMHWVRQAPGKGLEWVSYISSGSSIIYYADSVKGRFTISRDNAKNSLYLQMNSLRAEDTAVYYCARGGRLVWSPDYWGQGTLVTVSS
VL: DIVMTQSPDSLAVSLGERATINCKSSQSLLNSGNEKNYLTWYQQKPGQPPKLLIYWASTRESGVPDRFTGSGSGTDFTLTISSLQAEDVAVYYCQNDYSYPFTFGSGTKLEIKR
notes: also called VL-Q35E; Kabat 29
B11: H1_L1.33 (antibody, V domains shown)
VH: EVQLVESGGGLVQPGGSLRLSCAASGFTFSSFGMHWVRQAPGKGLEWVSYISSGSSIIYYADSVKGRFTISRDNAKNSLYLQMNSLRAEDTAVYYCARGGRLVWSPDYWGQGTLVTVSS
VL: DIVMTQSPDSLAVSLGERATINCKSSQSLLNSGNHKNYLTWYQQKPGQPPKLLIYWASTRESGVPDRFTGSGSGTDFTLTISSLQAEDVAVYYCQNDYSYPFTFGSGTKLEIKR
notes: also called VL-Q35H; Kabat 29
B12: H1_L1.26 (antibody, V domains shown)
VH: EVQLVESGGGLVQPGGSLRLSCAASGFTFSSFGMHWVRQAPGKGLEWVSYISSGSSIIYYADSVKGRFTISRDNAKNSLYLQMNSLRAEDTAVYYCARGGRLVWSPDYWGQGTLVTVSS
VL: DIVMTQSPDSLAVSLGERATINCKSSQSLLNSGSQKNYLTWYQQKPGQPPKLLIYWASTRESGVPDRFTGSGSGTDFTLTISSLQAEDVAVYYCQNDYSYPFTFGSGTKLEIKR
notes: also called VL-N34S; Kabat 28
B13: H1_L1.36 (antibody, V domains shown)
VH: EVQLVESGGGLVQPGGSLRLSCAASGFTFSSFGMHWVRQAPGKGLEWVSYISSGSSIIYYADSVKGRFTISRDNAKNSLYLQMNSLRAEDTAVYYCARGGRLVWSPDYWGQGTLVTVSS
VL: DIVMTQSPDSLAVSLGERATINCKSSQSLLNSGNAKNYLTWYQQKPGQPPKLLIYWASTRESGVPDRFTGSGSGTDFTLTISSLQAEDVAVYYCQNDYSYPFTFGSGTKLEIKR
notes: also called VL-Q35A; Kabat 29

T1 sequence (Q15116 25-167 limits assumed): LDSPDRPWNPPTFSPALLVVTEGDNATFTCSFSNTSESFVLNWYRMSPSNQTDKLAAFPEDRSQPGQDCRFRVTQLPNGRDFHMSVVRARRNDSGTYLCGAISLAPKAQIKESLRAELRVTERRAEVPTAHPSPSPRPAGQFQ

The test has as its target T1, human PD-1-His (human, UniProt Q15116 25-167, limits assumed).
T1 construct: Antigen of the Octet assays; not shown: His tag
As to the kind of experiment: Octet.
B1 gave a Kd of 57.6 nM, a koff of 0.006 s⁻¹ and an on-rate (kon) of 104000 M⁻¹ s⁻¹.
Turning to B2, the Kd was determined as 305 nM, the koff was 0.0405 s⁻¹ and the kon came out at 133000 M⁻¹ s⁻¹.
With B3, the affinity, expressed as Kd, was 57.6 nM; the koff came out at 0.00638 s⁻¹; the on-rate constant (kon) is 111000 M⁻¹ s⁻¹.
Consider B4, for which the Kd was 403 nM, the koff is 0.0539 s⁻¹ and the kon came to 134000 M⁻¹ s⁻¹.
B5 registered a Kd of 152 nM, a koff of 0.0123 s⁻¹ and a kon of 80900 M⁻¹ s⁻¹.
Turning to B6, the Kd is 42.1 nM, the koff was found to be 0.00451 s⁻¹ and the kon turned out to be 107000 M⁻¹ s⁻¹.
B7 yielded a dissociation constant (Kd) of 61.9 nM, a koff of 0.00901 s⁻¹ and a kon of 146000 M⁻¹ s⁻¹.
The molecule B8 registered a Kd of 200 nM, a koff of 0.0183 s⁻¹ and a kon of 91600 M⁻¹ s⁻¹.
Regarding B9, the Kd was determined as 51.5 nM, the koff is 0.0117 s⁻¹ and the on-rate constant (kon) was 227000 M⁻¹ s⁻¹.
In the case of B10, the Kd amounted to 35 nM, the koff was 0.00476 s⁻¹ and the kon was 136000 M⁻¹ s⁻¹.
Molecule B11 returned a Kd of 42.7 nM, a koff of 0.00566 s⁻¹ and a kon of 133000 M⁻¹ s⁻¹.
In turn, B12 gave an equilibrium dissociation constant (Kd) of 177 nM, a koff of 0.0229 s⁻¹ and a kon of 130000 M⁻¹ s⁻¹.
The matching figures for B13: 60.9 nM, 0.00678 s⁻¹ and 111000 M⁻¹ s⁻¹.
